{"source": "paper PMC10397247", "assay_in_all_cases": "two-hybrid library CCNG1;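 also: natural log of median RNA to DNA barcode read ratio; higher means stronger binding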", "key": {"4H3843-bH": {"molecular_target": "T1, 4H3843-bH", "T1 chain": "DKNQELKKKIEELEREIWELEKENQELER"}, "4H3855-bA": {"molecular_target": "T2, 4H3855-bA", "T2 chain": "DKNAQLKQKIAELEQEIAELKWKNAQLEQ"}, "4H4001-bH": {"molecular_target": "T3, 4H4001-bH", "T3 chain": "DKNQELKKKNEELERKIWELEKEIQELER"}, "4H462-bH": {"molecular_target": "T4, 4H462-bH", "T4 chain": "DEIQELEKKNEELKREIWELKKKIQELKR"}, "4H568-bH": {"molecular_target": "T5, 4H568-bH", "T5 chain": "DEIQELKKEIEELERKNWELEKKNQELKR"}, "4H607-bH": {"molecular_target": "T6, 4H607-bH", "T6 chain": "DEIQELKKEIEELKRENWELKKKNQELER"}, "4H687-bH": {"molecular_target": "T7, 4H687-bH", "T7 chain": "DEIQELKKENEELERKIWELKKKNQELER"}, "4H72-bH": {"molecular_target": "T8, 4H72-bH", "T8 chain": "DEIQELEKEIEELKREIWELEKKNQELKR"}, "4H797-bH": {"molecular_target": "T9, 4H797-bH", "T9 chain": "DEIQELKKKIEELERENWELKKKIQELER"}, "4H883-bH": {"molecular_target": "T10, 4H883-bH", "T10 chain": "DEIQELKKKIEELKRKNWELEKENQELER"}, "4H918-bH": {"molecular_target": "T11, 4H918-bH", "T11 chain": "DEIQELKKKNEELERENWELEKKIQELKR"}, "4H953-bH": {"molecular_target": "T12, 4H953-bH", "T12 chain": "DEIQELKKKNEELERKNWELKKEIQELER"}, "4H967-bH": {"molecular_target": "T13, 4H967-bH", "T13 chain": "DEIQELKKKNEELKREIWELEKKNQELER"}}, "data": [{"binder": "DKNQELKKKIEELEREIWELEKENQELER", "note": "[4H3843-bH]", "values": [{"measurement": "interaction score", "setting": "4H3843-bH", "result": -0.634}, {"measurement": "interaction score", "setting": "4H3855-bA", "result": 1.29}, {"measurement": "interaction score", "setting": "4H4001-bH", "result": -0.099}, {"measurement": "interaction score", "setting": "4H462-bH", "result": -0.193}, {"measurement": "interaction score", "setting": "4H568-bH", "result": -1.1}, {"measurement": "interaction score", "setting": "4H607-bH", "result": -2.13}, {"measurement": "interaction score", "setting": "4H687-bH", "result": -0.585}, {"measurement": "interaction score", "setting": "4H72-bH", "result": -0.557}, {"measurement": "interaction score", "setting": "4H797-bH", "result": -0.437}, {"measurement": "interaction score", "setting": "4H883-bH", "result": -0.346}, {"measurement": "interaction score", "setting": "4H918-bH", "result": -2.64}, {"measurement": "interaction score", "setting": "4H953-bH", "result": -0.885}, {"measurement": "interaction score", "setting": "4H967-bH", "result": -0.0277}]}]}
